Where only a bound is given, the exact number is not on record here.

From patent publication US20230322908A1 (AC IMMUNE, published 2023) come the findings set out here.

For assay [1], the target named is T1, recombinant human full-length TDP-43 (TAR DNA-binding protein 43), soluble (human, UniProt Q13148 1-414).
T1 construct: Used on Luminex beads, coated on ELISA plates, and immobilized or injected in SPR; also called FL TDP-43; TDP-43 protein
Put plainly: SPR, immobilized soluble TDP-43. On the procedure: (§1) Binding avidity to soluble or aggregated FL TDP-43 was evaluated by determing the dissociation constants (KD) using surface plasmon resonance (SPR; Biacore T200, GE Healthcare Life Sciences). Recombinant human soluble or aggregated FL TDP-43 were immobilized on a CM5 Series S sensor chip (GE Healthcare Life Sciences) by amine coupling. Soluble TDP-43 was immobilized at a concentration of 5 µg/ml in 10 mM sodium acetate (pH 4.5) with a flow rate of 5 µl/min for 420 seconds resulting in an immobilization level of 150 RU. Aggregated TDP-43 was immobilized at a concentration of 50 µg/ml in 10 mM sodium acetate (pH 4.5) with a flow rate of 5 µl/min for 840 seconds resulting in an immobilization level of 110 RU. Biotinylated TP-73 peptide (aa 181-190 of SEQ ID NO:1) was immobilized on a Series S Sensor Chip SA (GE Healthcare Life Sciences) at a concentration of 5 µg/ml in PBS-P⁺ with a flow rate of 5 µl/min for 30 seconds resulting in an immobilization level of 400 RU. […] The antibodies were injected at a flow rate of 50 µl/min for 90 seconds contact time and 700 seconds dissociation phase followed by three regenerations with 10 mM glycine-HCl pH 1.7. For the optimized SPR protocol the antibodies were diluted 3-fold starting from 300 nM and dilute down to 1.2 nM and injected for 300 seconds at 30 µl/min followed by 600 seconds dissociation. The surface was regenerated by one injection with 10 mM glycine-HCl pH 1.7. Results obtained from binding kinetics were double-referenced using a blank flow cell and a buffer cycle and were evaluated with a global 1:1 fitting model with RI. Avidities for 11 antibodies and two Fab fragments are depicted in Table 8. […] In addition, some antibodies show preferential binding to aggregated TDP-43 as compared with soluble TDP-43.
(SPR reads the build-up and loss of mass on a sensor chip optically.)

For assay [2], the target named is T2, recombinant human aggregated full-length TDP-43 (human, UniProt Q13148 1-414).
T2 construct: also called aggregated TDP-43; aggregated FL TDP-43
T2 sequence (Q13148 whole entry): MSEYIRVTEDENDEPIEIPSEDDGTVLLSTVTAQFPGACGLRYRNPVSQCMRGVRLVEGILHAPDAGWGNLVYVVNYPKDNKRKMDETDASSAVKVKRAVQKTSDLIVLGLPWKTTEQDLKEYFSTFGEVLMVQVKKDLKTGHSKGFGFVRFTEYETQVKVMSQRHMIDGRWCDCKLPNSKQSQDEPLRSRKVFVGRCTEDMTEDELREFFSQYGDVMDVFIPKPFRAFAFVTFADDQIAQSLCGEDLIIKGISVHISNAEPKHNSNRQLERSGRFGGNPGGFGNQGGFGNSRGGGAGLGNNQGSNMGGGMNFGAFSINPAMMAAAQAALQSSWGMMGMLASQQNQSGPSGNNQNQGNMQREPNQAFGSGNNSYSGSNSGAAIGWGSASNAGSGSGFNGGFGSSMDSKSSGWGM
In words: SPR, immobilized aggregated TDP-43. On the procedure: as §1

Assay [3] deals with T1, recombinant human full-length TDP-43 …. In words: Luminex, FL TDP-43 on beads. Here is the method: Mice were euthanized and fusion with myeloma cells was performed using splenocytes from four individual mice. Screening for antibodies from the successfully fused hybridoma cell lines were performed as follows. Diluted (1:32) cell culture supernatants were analyzed using Luminex bead-based multiplex assay (Luminex, The Netherlands). Luminex beads were conjugated to FL TDP-43 and with capturing IgGs with anti-mouse IgG-Fc antibodies specific for the IgG1, IgG2a, IgG2b, IgG2c, and IgG3 subclasses (Jackson Immunoresearch, USA). Binding to beads conjugated to FL TDP-43 identified 386 hits derived from mice immunized with the FL TDP-43 liposomal vaccine.
Luminex assays with serial dilution of antibodies were performed as described before to determine half maximal effective concentration (EC50) of binding of antibodies to FL TDP-43. In summary, all tested antibodies bind to full length TDP-43 with high affinity.

Assay [4] has the same target. In words: SPR, mAb captured, FL TDP-43 injected; mean. Here is the method:
Binding affinity to soluble FL TDP-43 was evaluated by determing the dissociation constants (KD) using surface plasmon resonance (SPR; Biacore T200, GE Healthcare Life Sciences). Goat-anti mouse capture antibody was immobilized on a CM5 Series S sensor chip (GE Healthcare Life Sciences) by amine coupling. Antibodies were captured at a concentration of 2-5 µg/ml in PBS-P⁺ (GE Healthcare Life Sciences) with a flow rate of 10 µl/min for 120 seconds resulting in a capture level of 350-1000 RU. […] Dissociation was recorded for 1 h followed by one regeneration with 10 mM glycine-HCl pH 1.7. Results obtained from binding kinetics were double-referenced using a blank flow cell and a buffer cycle and were evaluated with a global 1:1 fitting model with RI.

Assay [5] shares this target. Put plainly: indirect ELISA, coated FL TDP-43. Here is the method: Antibody binding to human FL TDP-43 was determined using an indirect ELISA. ELISA plate coating with 1 µg/ml human FL TDP-43 was performed overnight in carbonate buffer at 4° C. Plates were washed with 0.05% Tween-20/PBS and then blocked with 1% bovine serum albumin (BSA) in 0.05% Tween-20/PBS for 1 hour at 37° C. Antibodies purified from hybridoma supernatants were then added in a 3-fold serial dilution starting at 1 µg/ml, and incubated for 2 hours at 37° C. after which the plates were washed. An AP-conjugated anti-mouse IgG secondary antibody (Jackson Immunoresearch Laboratories, United Kingdom) was added at 1/1000 dilution in 0.05% Tween-20/PBS for 1 hour at 37° C. After the final wash, plates were incubated with pNPP (Sigma-Aldrich, Switzerland) phosphatase substrate solution, and read at 405 nm using an ELISA plate reader (Tecan, Switzerland).

Assay [6] shares this target. In words: SPR optimized protocol, immobilized soluble TDP-43.
Assay [7] has as its target T2, recombinant human aggregated …. In words: SPR optimized protocol, immobilized aggregated TDP-43.

T1 sequence (Q13148 whole entry): as above

B1: ACI-7071-809F12-Ab1 (antibody, mouse IgG2b, V domains shown)
VH: QVQLKESGPGLVAPSQSLSITCTVSGFSLNRNGVQWVRQPPGKGLEWLGVIWPGGSTNCNSALMSRLSISKDNSKSQVFLKMNSLHTDDTGIYYCARVGGNYVWDYNNYAWGQGTLVTVSA
VL: DVLMTQTPLSLPVSLGDQASISCRSSQNIVHSIGNTYLEWYLQKPGQSPKLLIYKVSNRFSGVPDRFSGSGSGTDFTLKISRVEAEDLGVYYCFQGSHVPYTFGGGTKLEIR
notes: Mouse IgG2b, kappa, from hybridoma; also called 809F12D8
Broadly, the Kd is a measure of binding affinity in units of concentration. What is called koff is a measure of how fast the partners let go of each other. One may read the kon as the rate constant with which the complex forms. One may read the EC50 as the concentration that produces a half-maximal response. Turning to B1, the values for the dissociation constant (Kd) in assay [1], in assay [2] and in assay [4] were 1.68 nM, 0.81 nM and 0.423 nM, respectively. Besides, the koff in assay [1] was found to be 0.000167 s⁻¹; in assay [2], 7.63e-05 s⁻¹; in assay [4], 1.36e-05 s⁻¹. The kon in assay [1] is 99400 M⁻¹ s⁻¹; in assay [2], 94700 M⁻¹ s⁻¹; in assay [4], 32000 M⁻¹ s⁻¹. In addition, the EC50 was below 0.01 nM in assay [3] and 0.014 µg/mL in assay [5].

B2: ACI-7069-641H1-Ab2 (antibody, mouse IgG2b, V domains shown)
VH: QVQLKESGPGLVAPSQSLSITCTVSGFSLTNYGVHWVRQPPGKGLEWLGLMWAGGSTNYNSALMSRLSISKDNSKSQVFLKMNSLQTDDTAMYYCVIYRTGFAYWGQGTLVTVSA
VL: DVLMTQTPLSLPVSLGDQASISCRSSQSIVHTIGNTYLEWYLQKPGQSPKLLIYKVSNRFSGVPDRFSGSGSGTDFTLKISRVEAEDLGVYYCFQGSHVPFTFGSGTKLEIK
notes: Mouse IgG2b, kappa, from hybridoma; also called 641H1E7
Turning to B2, in assay [1], the Kd was 6.76 nM, the koff came to 0.000841 s⁻¹ and the kon was found to be 125000 M⁻¹ s⁻¹. In addition, in assay [2], the Kd came out at 1.6 nM, the off-rate constant (koff) came out at 0.000193 s⁻¹ and the kon is 121000 M⁻¹ s⁻¹. Moreover, the EC50 in assay [3] is below 0.01 nM. Moreover, the half-maximal effective concentration (EC50) in assay [5] was 0.016 µg/mL.

B3: ACI-7069-646B7-Ab1 (antibody, mouse IgG2b, V domains shown)
VH: QVQLKESGPGLVAPSQSLSITCTVSGFSLTNFGVHWVRQPPGKGLEWLGIMWAGGSTNYNSALMSRLSISKDNSKSQVFLKMNSLQTDDTAMYYCVIYKTGFAYWGQGTLVTVSA
VL: DVLMTQTPLSLPVSLGDQASISCRSSQSIVHAIGNTYLEWYLQKPGQSPKLLIYKVSNRFSGVPDRFSGSGSGTDFTLKISRVEAEDLGVYYCFQGSHVPFTFGSGTKLEIK
notes: Mouse IgG2b, kappa, from hybridoma; also called 646B7F7
B3: in assay [1], the Kd was 3.66 nM, the koff was determined as 0.00065 s⁻¹ and the kon stood at 178000 M⁻¹ s⁻¹. In addition, in assay [2], the Kd was determined as 1.28 nM, the koff was found to be 0.000184 s⁻¹ and the kon is 144000 M⁻¹ s⁻¹. Besides, in assay [3], the EC50 is below 0.01 nM. Besides, in assay [5], the EC50 is 0.011 µg/mL.

B4: ACI-7069-634H10-Ab2 (antibody, mouse IgG2b, V domains shown)
VH: EVQLQQSGAELVKPGASVRLSCTASGFNIKDTYMHWVKQRPEQGLEWIGRIDPANSNTKFDPKFQGKATITSDTSSNTAYLQLSSLTSEDTAVYYCARFYGGSHWYFDVWGAGTTVTVSS
VL: DIKMTQSPSSMYASLGERVTITCKASQDIKSYLSWYQHKPWKSPKALIYYATSLADGVPSRFSGSGSGQDYSLTISSLESDDTATYYCLQQGESPYTFGGGTKLEIK
notes: Mouse IgG2b, kappa, from hybridoma; also called 634H10H7
On to B4, for which the Kd in assay [1] was determined as 19.7 nM; in assay [2], 1.51 nM. For the same molecule, the figures for the koff in assay [1] and in assay [2] were 0.000874 s⁻¹ and 0.000166 s⁻¹, respectively. Further, the kon in assay [1] stood at 44300 M⁻¹ s⁻¹; in assay [2], 110000 M⁻¹ s⁻¹. Further, the values for the EC50 in assay [3] and in assay [5] were below 0.01 nM and 0.053 µg/mL, respectively.

B5: ACI-7069-642D12-Ab1 (IgG2a variant) (antibody, V domains shown)
VH: EVQLQQSGAELVKPGASVRLSCTASGFNIKDPYMHWVRQRPKQGLEWIGRIDPADGNTKYDPKFQGKATLTADTSSNVAYLHLSSLTSEDTAVYYCARFYGSSHWYFDVWGAGTTVTVSS
VL: DIKMTQSPSSMYASLGERVTITCKASQDIKRYLSWYQQKPWKSPKILIYYATSLADGVPSRFSGTGSGQDYSLTISSLESDDVATYYCLQQGESPYTFGGGTKLEIK
notes: Recombinantly produced mouse IgG2a isotype; also called 642D12B4 *; ACI-7069-642D12-Ab1 (IgG2a isotype)
Consider B5, for which, in assay [6], the Kd was 3.9 nM, the koff amounted to 0.00045 s⁻¹ and the kon amounted to 115000 M⁻¹ s⁻¹. In assay [7], the Kd turned out to be 0.69 nM, the dissociation rate constant (koff) was determined as 9.87e-05 s⁻¹ and the kon is 149000 M⁻¹ s⁻¹.

B6: ACI-7069-636E5-Ab1 (antibody, mouse IgG2b, V domains shown)
VH: EVHLVESGGDLVMPGGSLKLSCAASGFTFSNYGMSWVRQTPDKRLEWVATISSGGKYINYLDSLKGRFTISRDNAKNTLYLQMSSLKSEDTAMYYCAKDYGSGWAWFAYWGQGTLVTVSA
VL: QLVLTQSSSASFSLGASAKLTCTLSSQHSTYTIEWYQQQPLKPPKYVMELKKDGSHSTGDGIPDRFSGSSSGADRYLSISNIQPEDEAIYICGVGDTIKEQFVYVFGGGTKVTVL
notes: Mouse IgG2b, lambda, from hybridoma; also called 636E5B8
In the case of B6, the Kd in assay [1] was found to be 43.8 nM; in assay [2] it was 2.43 nM. For the same molecule, the results for the koff in assay [1] and in assay [2] were 0.000682 s⁻¹ and 0.000274 s⁻¹, respectively. For the same molecule, the values for the kon in assay [1] and in assay [2] were 15600 M⁻¹ s⁻¹ and 113000 M⁻¹ s⁻¹, respectively. For the same molecule, the EC50 in assay [3] is below 0.01 nM; in assay [5] it was 0.015 µg/mL.

B7: ACI-7071-809D9-Ab2 (antibody, mouse IgG2b, V domains shown)
VH: QVQLQQSGAELVRPGVSVKISCKGSGYKFTDYSMHWVKQSHTKSLEWIGVISTYYGDTTYNQKFKGKATITVDKSSSTAYMELARLTSEDSAIYYCATYGNFPASFSYWGQGTLVTVSA
VL: DIVMTQAAPSIPVTPGESVSISCRSSKSLLHSNGNTYLYWFLQRPGQSPQLLIYRMSNLASGVPDRFSGSGSGTAFTLRISRVEAEDVGVYYCMQHLEYPFTFGSGTKLEIK
notes: Mouse IgG2b, kappa, from hybridoma; also called 809D9C2
For the molecule B7, the Kd was determined as 10.6 nM in assay [1] and 2.25 nM in assay [2]. The koff in assay [1] is 0.000821 s⁻¹; in assay [2], 0.000216 s⁻¹. The values for the kon in assay [1] and in assay [2] were 77100 M⁻¹ s⁻¹ and 95900 M⁻¹ s⁻¹, respectively. The EC50 is below 0.01 nM in assay [3] and 0.017 µg/mL in assay [5].

B8: ACI-7071-712A6-Ab1 (antibody, mouse IgG2c, V domains shown)
VH: QVQLQQSGAELVKPGTSVKLSCKASAYTFTEYTIHWIKQKSGQGLEWIGWFHPENDNIKYNENFKDKATLTADRSSSTVYMELSRLTSEDSAVYFCAGTSGYGDYWGQGTTLTVSS
VL: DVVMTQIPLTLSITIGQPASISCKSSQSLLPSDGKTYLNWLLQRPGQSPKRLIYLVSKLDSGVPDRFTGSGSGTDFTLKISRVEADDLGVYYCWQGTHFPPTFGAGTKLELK
notes: Mouse IgG2c; also called 712A6B10
B8: in assay [1], the dissociation constant Kd turned out to be 406 nM, the koff amounted to 0.000545 s⁻¹ and the on-rate (kon) was determined as 1340 M⁻¹ s⁻¹. Further, in assay [2], the Kd was 0.68 nM, the koff came out at 2.36e-05 s⁻¹ and the kon was determined as 34800 M⁻¹ s⁻¹. For the same molecule, the EC50 in assay [3] was found to be 0.18 nM. The EC50 in assay [5] was found to be 0.102 µg/mL.

B9: ACI-7069-633B12-Ab1 (IgG2a variant) (antibody, V domains shown)
VH: EVQLQQSGPELVKPGASVKISCKTSGFTFTEYSMHWVKQSHGKSLEWIGGINPNNGGTSYNQKFKGKATLTVDKSSSTAYMELRSLTSEDSAVYYCARESWGQGTTLTVSS
VL: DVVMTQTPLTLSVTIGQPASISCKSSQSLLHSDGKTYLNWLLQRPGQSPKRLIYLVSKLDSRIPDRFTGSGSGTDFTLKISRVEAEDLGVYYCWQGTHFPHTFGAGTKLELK
notes: Recombinantly produced mouse IgG2a isotype; also called 633B12C8*; ACI-7069-633B12-Ab1 (IgG2a isotype)
Take B9: in assay [6], the Kd came out at 0.22 nM, the koff was 1.08e-05 s⁻¹ and the kon was found to be 61800 M⁻¹ s⁻¹. Moreover, in assay [7], the Kd was 0.18 nM, the koff amounted to 1.32e-05 s⁻¹ and the kon turned out to be 84000 M⁻¹ s⁻¹.
